Literature values in paper PMC2845642.
Read-outs that look alike come from different tables or passages of the source.

Columns and labels:
CD28 (Homo sapiens) [1] = target: CD28 (Homo sapiens) (UniProt P10747)
CD28 (Homo sapiens) [2] = target: CD28 (Homo sapiens) (UniProt P10747); remark: listed apart in the source

Kd (CD28 (Homo sapiens) [1]) | Kd (CD28 (Homo sapiens) [2]) | Substance
4 µM |  | CD80 (from UniProt P33681)
 | 20 µM | CD86 (from UniProt P42081)
